# From patent US20110263454A1, “Methods of Identifying Functional Characteristics of Promoters, Transcription Modifying Proteins and Transcription Modulating Agents” (Salk Institute for Biological Studies, priority 2008, published 2011)
# B1: ERR3: Estrogen Related Receptor γ (NR3B3, ERRg), cDNA driver (protein, UniProt P62508 1-458, looked up)
# Estrogen-related receptor …: MDSVELCLPESFSLHYEEELLCRMSNKDRHIDSSCSSFIKTEPSSPASLTDSVNHHSPGGSSDASGSYSSTMNGHQNGLDSPPLYPSAPILGGSGPVRKLYDDCSSTIVEDPQTKCEYMLNSMPKRLCLVCGDIASGYHYGVASCEACKAFFKRTIQGNIEYSCPATNECEITKRRRKSCQACRFMKCLKVGMLKEGVRLDRVRGGRQKYKRRIDAENSPYLNPQLVQPAKKPYNKIVSHLLVAEPEKIYAMPDPTVPDSDIKALTTLCDLADRELVVIIGWAKHIPGFSTLSLADQMSLLQSAWMEILILGVVYRSLSFEDELVYADDYIMDEDQSKLAGLLDLNNAILQLVKKYKSMKLEKEEFVTLKAIALANSDSMHIEDVEAVQKLQDVLHEALQDYEAGQHMEDPRRAGKMLMTLPLLRQTSTKAVQHFYNIKLEGKVPMHKLFLEMLEAKV
# B2: CTF1: COUP-TF1 (NR2F1), cDNA driver (protein, UniProt P10589 1-423, looked up)
# COUP transcription factor 1: MAMVVSSWRDPQDDVAGGNPGGPNPAAQAARGGGGGAGEQQQQAGSGAPHTPQTPGQPGAPATPGTAGDKGQGPPGSGQSQQHIECVVCGDKSSGKHYGQFTCEGCKSFFKRSVRRNLTYTCRANRNCPIDQHHRNQCQYCRLKKCLKVGMRREAVQRGRMPPTQPNPGQYALTNGDPLNGHCYLSGYISLLLRAEPYPTSRYGSQCMQPNNIMGIENICELAARLLFSAVEWARNIPFFPDLQITDQVSLLRLTWSELFVLNAAQCSMPLHVAPLLAAAGLHASPMSADRVVAFMDHIRIFQEQVEKLKALHVDSAEYSCLKAIVLFTSDACGLSDAAHIESLQEKSQCALEEYVRSQYPNQPSRFGKLLLRLPSLRTVSSSVIEQLFFVRLVGKTPIETLIRDMLLSGSSFNWPYMSIQCS
# B3: CTF2: COUP-TF2 (NR2F2), cDNA driver (protein, UniProt P24468 1-414, looked up)
# COUP transcription factor 2: MAMVVSTWRDPQDEVPGSQGSQASQAPPVPGPPPGAPHTPQTPGQGGPASTPAQTAAGGQGGPGGPGSDKQQQQQHIECVVCGDKSSGKHYGQFTCEGCKSFFKRSVRRNLSYTCRANRNCPIDQHHRNQCQYCRLKKCLKVGMRREAVQRGRMPPTQPTHGQFALTNGDPLNCHSYLSGYISLLLRAEPYPTSRFGSQCMQPNNIMGIENICELAARMLFSAVEWARNIPFFPDLQITDQVALLRLTWSELFVLNAAQCSMPLHVAPLLAAAGLHASPMSADRVVAFMDHIRIFQEQVEKLKALHVDSAEYSCLKAIVLFTSDACGLSDVAHVESLQEKSQCALEEYVRSQYPNQPTRFGKLLLRLPSLRTVSSSVIEQLFFVRLVGKTPIETLIRDMLLSGSSFNWPYMAIQ
# B4: CTF3: COUP-TF3 (NR2F6), cDNA driver (protein, UniProt P10588 1-404, looked up)
# Nuclear receptor subfamily 2 …: MAMVTGGWGGPGGDTNGVDKAGGYPRAAEDDSASPPGAASDAEPGDEERPGLQVDCVVCGDKSSGKHYGVFTCEGCKSFFKRSIRRNLSYTCRSNRDCQIDQHHRNQCQYCRLKKCFRVGMRKEAVQRGRIPHSLPGAVAASSGSPPGSALAAVASGGDLFPGQPVSELIAQLLRAEPYPAAAGRFGAGGGAAGAVLGIDNVCELAARLLFSTVEWARHAPFFPELPVADQVALLRLSWSELFVLNAAQAALPLHTAPLLAAAGLHAAPMAAERAVAFMDQVRAFQEQVDKLGRLQVDSAEYGCLKAIALFTPDACGLSDPAHVESLQEKAQVALTEYVRAQYPSQPQRFGRLLLRLPALRAVPASLISQLFFMRLVGKTPIETLIRDMLLSGSTFNWPYGSGQ
# B5: hMR: Mineralocorticoid Receptor (NR3C2, MR), cDNA driver (protein, UniProt P08235 1-984, looked up)
# Mineralocorticoid receptor: METKGYHSLPEGLDMERRWGQVSQAVERSSLGPTERTDENNYMEIVNVSCVSGAIPNNSTQGSSKEKQELLPCLQQDNNRPGILTSDIKTELESKELSATVAESMGLYMDSVRDADYSYEQQNQQGSMSPAKIYQNVEQLVKFYKGNGHRPSTLSCVNTPLRSFMSDSGSSVNGGVMRAVVKSPIMCHEKSPSVCSPLNMTSSVCSPAGINSVSSTTASFGSFPVHSPITQGTPLTCSPNVENRGSRSHSPAHASNVGSPLSSPLSSMKSSISSPPSHCSVKSPVSSPNNVTLRSSVSSPANINNSRCSVSSPSNTNNRSTLSSPAASTVGSICSPVNNAFSYTASGTSAGSSTLRDVVPSPDTQEKGAQEVPFPKTEEVESAISNGVTGQLNIVQYIKPEPDGAFSSSCLGGNSKINSDSSFSVPIKQESTKHSCSGTSFKGNPTVNPFPFMDGSYFSFMDDKDYYSLSGILGPPVPGFDGNCEGSGFPVGIKQEPDDGSYYPEASIPSSAIVGVNSGGQSFHYRIGAQGTISLSRSARDQSFQHLSSFPPVNTLVESWKSHGDLSSRRSDGYPVLEYIPENVSSSTLRSVSTGSSRPSKICLVCGDEASGCHYGVVTCGSCKVFFKRAVEGQHNYLCAGRNDCIIDKIRRKNCPACRLQKCLQAGMNLGARKSKKLGKLKGIHEEQPQQQQPPPPPPPPQSPEEGTTYIAPAKEPSVNTALVPQLSTISRALTPSPVMVLENIEPEIVYAGYDSSKPDTAENLLSTLNRLAGKQMIQVVKWAKVLPGFKNLPLEDQITLIQYSWMCLSSFALSWRSYKHTNSQFLYFAPDLVFNEEKMHQSAMYELCQGMHQISLQFVRLQLTFEEYTIMKVLLLLSTIPKDGLKSQAAFEEMRTNYIKELRKMVTKCPNNSGQSWQRFYQLTKLLDSMHDLVSDLLEFCFYTFRESHALKVEFPAMLVEIISDQLPKVESGNAKPLYFHRK
# System: mPgc1b promoter
# Test: NHR-promoter luciferase screen, mPgc1b promoter
# Assay type: cell-based, mouse
# Conditions: PGC1b promoter reporter; co-transfected HR, without or with its ligand
# How it was run: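 Luciferase reporter read-out after co-expression in CV-1 cells of V5H6-tagged receptor (alone or with RXR), the promoter construct and LacZ. Values are luciferase/LacZ relative to a control lacking NHR or ligand; orphan receptors tested ligand-free.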
row,Molecule,"Luc. act., normalized to lacZ"
1,B1,20.1
2,B2,6.7
3,B3,12.2
4,B4,4.9
5,B5,5.7

# Same assay, conditions: PGC1b promoter reporter; co-transfected HR, without or with its ligand; relative to control
row,Molecule,"Normalized Luc. act., normalized to control"
1,B1,1.7
2,B2,0.6
3,B3,1.0
4,B4,0.4
5,B5,0.5

# Same assay, conditions: mPgc1b promoter-luciferase, CV-1 cells, NHR +/- ligand, control = 1.00
row,Molecule,"luciferase activity normalized to lacZ activity and to a control, mPgc1b"
1,B1,1.70
2,B2,0.57
3,B3,1.03
4,B4,0.42
5,B5,0.48

# System: SREBP1c promoter
# Test: NHR-promoter luciferase screen, SREBP1c promoter
# Assay type: cell-based, mouse
# Conditions: SREBP1c promoter; HR component without or with ligand
# How it was run: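 Values are luciferase activity normalised to LacZ (transfection control) and to a control lacking NHR or ligand. Read-out at 48 h in CV-1 cells carrying 100 ng promoter-reporter, 50 ng receptor (alone or with RXR) and 50 ng LacZ.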
Molecule,"Luc. act., normalized to lacZ","Normalized Luc. act., normalized to control"
B1,406.7,1.3
B2,205.9,0.6
B3,455.6,1.4
B4,230.3,0.7
B5,223.2,0.7

# Same assay, conditions: transcription factor +/- ligand; control = 1.00
row,Molecule,mSREBP1-c promoter reporter activity
1,B1,1.26
2,B2,0.64
3,B3,1.41
4,B4,0.71
5,B5,0.69

# System: hPOMC promoter
# Test: NHR-promoter luciferase screen, hPOMC promoter
# Assay type: cell-based, human
# Conditions: hPOMC promoter-luciferase, NHR +/- ligand, control = 1.0
# How it was run: (§1)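 CV-1 cells were co-transfected with 50 ng NHR (homodimer or NHR/RXR heterodimer), 100 ng promoter-luciferase construct and 50 ng LacZ. Luciferase was normalized to LacZ and to a no-NHR/no-ligand control.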
row,Molecule,"luciferase/LacZ, hPOMC (selected results)"
1,B1,4.1

# Same assay, conditions: hPOMC promoter; HR/ligand component
Molecule,"Luc. act., normalized to lacZ","Normalized Luc. act., normalized to control"
B1,17.6,4.1
B2,,0.0
B3,,0.0
B4,1.8,0.4
B5,,0.0

# Same assay, conditions: transcription factor +/- ligand; control = 1.00
row,Molecule,hPOMC promoter reporter activity
1,B1,4.09
2,B2,0.00
3,B3,0.00
4,B4,0.42
5,B5,0.00

# System: hTNFa promoter
# Test: NHR-promoter luciferase screen, hTNFa promoter
# Assay type: cell-based, human
# Conditions: TNFa promoter; HR component without or with ligand
# How it was run: as §1
Molecule,"Luc. act., normalized to lacZ","Normalized Luc. act., normalized to control"
B1,2705.8,2.8
B2,728.5,0.7
B3,1014.3,1.0
B4,932.4,0.9
B5,614.3,0.6

# Same assay, conditions: transcription factor +/- ligand; control = 1.00
row,Molecule,hTNFa promoter reporter activity
1,B1,2.75
2,B2,0.74
3,B3,1.03
4,B4,0.95
5,B5,0.62

# System: hMDR1 promoter
# Test: NHR-promoter luciferase screen, hMDR1 promoter
# Assay type: cell-based, human
# Conditions: MDR1 promoter; HR/ligand component
# How it was run: as §1
Molecule,"Luc. act., normalized to lacZ","Normalized Luc. act., normalized to control"
B1,0.2,0.8
B2,0.3,0.9
B3,0.3,1.0
B4,0.4,1.4
B5,0.1,0.3

# Same assay, conditions: transcription factor +/- ligand; control = 1.00
row,Molecule,hMDR1 promoter reporter activity
1,B1,0.79
2,B2,0.92
3,B3,1.01
4,B4,1.36
5,B5,0.34

# System: hPPARg2 promoter
# Test: NHR-promoter luciferase screen, hPPARg2 promoter
# Assay type: cell-based, human
# Conditions: PPARG2 promoter; hormone receptor with or without its ligand
# How it was run: as §1
row,Molecule,"Luc. act., normalized to lacZ"
1,B1,2.1
2,B2,1.4
3,B3,1.5
4,B4,1.7
5,B5,1.0

# Same assay, conditions: PPARG2 promoter; hormone receptor with or without its ligand; relative to control
row,Molecule,"Normalized Luc. act., normalized to control"
1,B1,1.0
2,B2,0.7
3,B3,0.8
4,B4,0.8
5,B5,0.5

# Same assay, conditions: Table 6d; luciferase activity relative to control (control = 1.00)
row,Molecule,Results of assays of transcription factor (+/- ligand) with hPPARg2
1,B1,1.04
2,B2,0.71
3,B3,0.76
4,B4,0.85
5,B5,0.51
